Target: T1, PD-L1 on tumor cell surfaces (mouse pancreatic cancer KC cells) (Mus musculus, UniProt Q9EP73)
T1 construct: endogenous in cells; host or cells: KC mouse pancreatic cancer cells (Pdx1-Cre; LSL-K-rasG12D derived)
Test: Competition-binding assay of FITC labeled PD-1 peptides with anti-mouse PD-L1 antibody on KC cells
Conditions: for fluorescence intensity on cells: FITC labeled peptide 2 μg/ml
Description: Two (2) μg of FITC labeled PD-1 peptides were mixed with 0, 5, 20 μg of anti-mouse PD-L1 antibody and then incubated with the KC cells for 2 hours. Unbound peptides and antibodies were washed off. Relative fluorescent intensities of KC cells were measured for each group.
Next, a competition-binding assay was performed to determine specificity of the PD-1 like peptides binding to PD-L1 on tumor cell surfaces. […] The peptides were then added to tissue culture plates with mouse pancreatic cancer KC cells.

T1 sequence (Q9EP73 19-290): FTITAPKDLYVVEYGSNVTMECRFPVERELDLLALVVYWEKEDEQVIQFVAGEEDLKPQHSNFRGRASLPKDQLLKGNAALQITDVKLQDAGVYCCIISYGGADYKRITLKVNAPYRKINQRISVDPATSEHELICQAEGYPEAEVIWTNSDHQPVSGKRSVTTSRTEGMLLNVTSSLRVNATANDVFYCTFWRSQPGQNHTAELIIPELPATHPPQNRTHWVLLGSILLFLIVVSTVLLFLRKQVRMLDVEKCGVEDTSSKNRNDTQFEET

Sequence | fluorescence intensity on cells | binding to cells with anti-PD-L1 antibody added (20 μg/ml anti-PD-L1 antibody)
NWNRLSPSNQTEKQAACGAISLHPKAKIEESPGHHHH [PD-1(Lin)] | High levels of fluorescence intensity | 
NWNRLSPSNQTEKQAAPHHHHCGAISLHPKAKIEE [PD-1 (Y)] | High levels of fluorescence intensity | reduced
